# B1: periostin: Recombinant periostin, purified from HEK293 cells expressing the full-length human cDNA; secreted protein of 834 amino acids (Seq ID. No. 1) (protein, listed as Homo sapiens)
# chain: MIPFLPMFSLLLLLIVNPINANNHYDKILAHSRIRGRDQGPNVCALQQILGTKKKYFSTCKNWYKKSICGQKTTVLYECCPGYMRMEGMKGCPAVLPIDHVYGTLGIVGATTTQRYSDASKLREEIEGKGSFTYFAPSNEAWDNLDSDIRRGLESNVNVELLNALHSHMINKRMLTKDLKNGMIIPSMYNNLGLFINHYPNGVVTVNCARIIHGNQIATNGVVHVIDRVLTQIGTSIQDFIEAEDDLSSFRAAAITSDILEALGRDGHFTLFAPTNEAFEKLPRGVLERFMGDKVASEALMKYHILNTLQCSESIMGGAVFETLEGNTIEIGCDGDSITVNGIKMVNKKDIVTNNGVIHLIDQVLIPDSAKQVIELAGKQQTTFTDLVAQLGLASALRPDGEYTLLAPVNNAFSDDTLSMVQRLLKLILQNHILKVKVGLNELYNGQILETIGGKQLRVFVYRTAVCIENSCMEKGSKQGRNGAIHIFREIIKPAEKSLHEKLKQDKRFSTFLSLLEAADLKELLTQPGDWTLFVPTNDAFKGMTSEEKEILIRDKNALQNIILYHLTPGVFIGKGFEPGVTNILKTTQGSKIFLKEVNDTLLVNELKSKESDIMTTNGVIHVVDKLLYPADTPVGNDQLLEILNKLIKYIQIKFVRGSTFKEIPVTVYTTKIITKVVEPKIKVIEGSLQPIIKTEGPTLTKVKIEGEPEFRLIKEGETITEVIHGEPIIKKYTKIIDGVPVEITEKETREERIITGPEIKYTRISTGGGETEETLKKLLQEEVTKVTKFIEGGDGHLFEDEEIKRLLQGDTPVRKLQANKKVQGSRRRLREGRSQ
# Experiments:
# [1] = tested on: primary neonatal rat ventricular cardiomyocytes; test: DNA synthesis, mitosis and cytokinesis in primary neonatal rat ventricular cardiomyocytes; format: cell-based
# Text: Primary neonatal rat ventricular cardiomyocytes were isolated using the Neomyts kit (Cellutron, Highland Park, N.J.), seeded at a density of 10^5 cells/cm^2 onto gelatin-coated cover slips, stimulated for 3 days, and labeled with BrdU for the terminal 2 days. Primary adult ventricular cardiomyocytes were isolated from male (300 gm) Wistar rats (Charles River Laboratories) and maintained as described (Engel, F. B. et al. p38 MAP kinase inhibition enables proliferation of adult mammalian cardiomyocytes. Genes Dev 19, 1175-87 (2005)). Adult cardiomyocytes were stimulated daily for 9 days and labeled with 30 μM BrdU for the terminal 3 days. Cardiomyocytes were stimulated with periostin (500 ng/mL) and FGF (100 ng/mL). Inhibiting antibodies were added at a concentration of 10 μg/mL, cRGD at 10 μM, U0126 at 10 μM, PD98059 at 1 μM, LY294002 at 10 μM, and Wortmannin at 0.1 μM 30 min prior to stimulation. The vehicle used to dissolve factors or chemicals was added to unstimulated samples, which were then processed together with the test samples.
# DNA-synthesis was analyzed by visualization of BrdU uptake and cytokinesis was determined by detection of the cleavage furrow and the midbody with an antibody against aurora B kinase as described (Engel, F. B. et al. p38 MAP kinase inhibition enables proliferation of adult mammalian cardiomyocytes. Genes Dev 19, 1175-87 (2005)). Signals were visualized with secondary antibodies conjugated to Alexa 488, Alexa 546, Alexa 594, and Alexa 647 (Invitrogen). Nuclei were visualized with 4′,6′-diamidino-2-phenylindole (DAPI, Invitrogen). For image acquisition, the value for γ was set at 1 and the lookup table settings were linear.
# [2] = tested on: primary neonatal rat ventricular cardiomyocytes; test: Cardiomyocyte proliferation by cell count (hemocytometer); format: cell-based
# Description: (§1) To determine cardiomyocyte proliferation, primary neonatal rat ventricular cardiomyocytes were quantified by counting with a hemocytometer after 3 days and 6 days of stimulation. To determine cardiomyocyte survival, primary neonatal rat ventricular cardiomyocytes were pre-treated with 500 ng/mL periostin or buffer for 30 min and then exposed to 0.5 μM doxycycline or 100 ng/mL TNFα for 24 hr and quantified by counting. Corresponding samples were stained with an antibody directed against tropomyosin as a cardiomyocyte marker to control for the percentage of differentiated cardiomyocytes. Apoptotic cardiomyocyte nuclei were determined after 24 hr with the In situ Cell Death Detection Kit (Roche, Indianapolis, Ind.) in combination with staining for troponin I.
# ERK1/2 and Akt = details: neonatal cardiomyocytes
# Description: Primary cardiomyocytes or heart tissue were lysed in 20 mM Tris (pH 7.5), 150 mM NaCl, 10 mM EDTA, 1 mM EGTA, 1% Triton X-100, […], 1 mM β-glycerol phosphate, 1 mM Na3VO4, 1 μg/ml, leupeptin, 1% NP-40 and 0.24 mg/mL Pefabloc SC (Roche) at 4° C. Protein concentrations were determined using the BCA assay (Pierce, Rockford, Ill.). Forty μg of cell lysate was separated on 10% SDS-polyacrylamide gels, blotted onto nitrocellulose membranes (Amersham, Piscataway, N. J.), which were then incubated with antibodies according to manufacturer's directions, followed by visualization with ECL reagent (Amersham).
# [3] = tested on: atrial natriuretic factor (ANF); test: Transcription of atrial natriuretic factor by RT-PCR in neonatal cardiomyocytes; format: cell-based, rat; details: 72 hr stimulation
# Description: RNA was prepared using Trizol reagent (Invitrogen) from neonatal rat ventricular cardiomyocytes after 72 hr of stimulation. Complementary DNA was synthesized from 2 μg RNA with the SuperScriptIII kit (Invitrogen) using oligo-dT primers. One μL cDNA was used as template for 20 μL PCR-reactions (95° C. for 2 min, 30 cycles of 95° C. for 2 min, 55° C. for 2 min, 72° C. for 5 min, followed by 72° C. for 10 min). Oligonucleotide primers used for detection of ANF were F: 5′-[…]-3′ (Seq ID No. 2), R: 5′-[…]-3′ (Seq ID No. 3), β-actin were F: 5′-[…]-3′ (Seq ID No. 4), R: 5′-[…]-3′ (Seq ID No. 5), […] were F: 5′-[…]-3′ (Seq ID No. 6), R: 5′-[…]-3′ (Seq ID No. 7); SMA were F: 5′-[…]-3′ (Seq ID No. 8), R: 5′-[…]-3′ (Seq ID No. 9); SERCA2 were F: 5′-[…]-3′ (Seq ID No. 10), R: 5′-[…]-3′ (Seq ID No. 11), and for GAPDH: 5′-[…]-3′ (Seq ID No. 12), R: 5′-[…]-3′ (Seq ID No. 13).
# [4] = tested on: adult ventricular cardiomyocytes; test: Transcription of fetal gene program (RT-PCR) in adult ventricular cardiomyocytes; format: cell-based, rat
# [5] = Diffusion range and presence of recombinant periostin in myocardium after epicardial Gelfoam patch; format: in vivo, rat; details: after 12 weeks
# Description: To develop a long-term delivery system for recombinant periostin, we determined if recombinant periostin associated with Gelfoam, a biodegradable biological scaffold. Gelfoam patches (Pfizer, New York, N.Y.) of 1 cm^2 diameter were loaded with 100 μg of recombinant human periostin and incubated with 1 mL of PBS at 37° C. with continuous agitation for 10 weeks. The supernatant was replaced every 2 weeks and the concentration of recombinant periostin in the supernatant was determined by Western blot using a polyclonal antibody directed against human periostin (Abeam). The diffusion range of recombinant periostin in myocardium was determined with a polyclonal antibody directed against human periostin followed by immunofluorescence microscopy. Presence of periostin in the myocardium was determined by Western blot using a polyclonal antibody directed against human periostin (Abeam).
# Adult male Sprague-Dawley rats (300 gm, Charles River Laboratories) underwent experimental myocardial infarction as described (del Monte, F. et al. Abrogation of ventricular arrhythmias in a model of ischemia and reperfusion by targeting myocardial calcium cycling. Proc Natl Acad Sci USA 101, 5622-7 (2004)). The survival rate was 67%. Gelfoam loaded with 100 μg of recombinant periostin or with buffer were applied over the myocardial infarction at the time of surgery. […]
# [6] = tested on: Adult male Sprague-Dawley rats; test: Cardiomyocyte cell cycle activity in vivo after intramyocardial injection; parameters: species or system rat; details: dispersed isolated cardiomyocytes
# [7] = tested on: primary neonatal rat ventricular cardiomyocytes; test: Cardiomyocyte apoptosis (TUNEL) and survival
# Description: as §1
molecule,measurement,setting,value
B1,"DNA synthesis, of cardiomyocytes","[1]; 500 ng/mL, 3 days",35±5%
same,increase of DNA synthesis over non-stimulated cardiomyocytes,"[1]; 500 ng/mL, 3 days",5 fold
same,increase of cardiomyocyte mitoses,[1]; 3 days,12 fold
same,increase of cytokineses,[1]; 3 days,8 fold
same,induction of cardiomyocyte DNA synthesis,"[1]; FIG. 2d, 2e",stimulated DNA synthesis as effectively as FGF
same,EC50,"[1]; increasing concentrations of periostin (FIG. 2a), read-out: half-maximal stimulation of cardiomyocyte DNA synthesis",155 ± 25 nM
same,increase of cardiomyocyte proliferation,[2]; after 3 days,3.6 fold
same,increase of cardiomyocyte proliferation,[2]; after 6 days,4.2 fold
same,activation of ERK1/2 and Akt,ERK1/2 and Akt,activated
same,transcription of atrial natriuretic factor (ANF),[3],did not induce
same,transcription of SERCA2,[4],slightly increased
same,"transcription of β-MHC, SMA and ANF",[4],not increased
same,presence of periostin in the left ventricle by immunoblotting,[5],confirmed presence
same,distance from the epicardium to the farthest diffusion range of periostin,[5]; epicardial Gelfoam patch,461±62
same,H3P-positive mononucleated cardiomyocytes,[6],2±0.2%
same,cardiomyocyte survival,"[7]; 500 ng/mL pre-treatment, then doxorubicin or TNF-α 24 hr",not affected
same,doxorubicin or TNF-α-induced cardiomyocyte death,[7]; FIG. 2L,did not reduce
same,baseline and induced cardiomyocyte apoptosis,"[7]; TUNEL, 24 hr",not affected

# Source: patent publication US8936806B2, “Periostin induces proliferation of cardiomyocytes and promotes cardiac regeneration” (Children's Medical Center Corporation, priority 2007, dated 2015)
